Results published in US20230212319A1, “NOVEL ANTIGEN BINDING DOMAINS AND SYNTHETIC ANTIGEN RECEPTORS INCORPORATING THE SAME” (University of Southern California, priority 2020, published 2023).

B1: 22084 (protein)
chain: MALPVTALLLPLALLLHAARPQLQLQESGPGLVKPSETLSLTCTVSGDSISSGDYYWGWIRQPPGKGLEWIGHIYYSGVTYYNPSLKSRVTISVDTSRNQFSLKLSSVTAADTAVYYCTREDSSNWRSRGQGTLVTVSSLDSGGGGSFEQLQLQESGPGLVKPSETLSLTCTVSGGSISSGDYYWGWIRQPPGKGLEWIGHIYYSGATYYNPSLKSRVTISVDTSRNQFSLKLSSVTAADTAVYYCTRDDSSNWRSRGQGTLVTVSSTRDKTHTCPPCPAIPEDTFFPSPESSCDVKLVEKSFETDTNLNFQNLSVIGFRILLLKVAGFNLLMTLRLWSS
B2: 22085 (protein)
chain: MALPVTALLLPLALLLHAARPQLQLQESGPGLVKPSETLSLTCTVSGDSISSGDYYWGWIRQPPGKGLEWIGHIYYSGVTYYNPSLKSRVTISVDTSRNQFSLKLSSVTAADTAVYYCTREDSSNWRSRGQGTLVTVSSLEGSGGGGSGGGGSGEDLKNVFPPEVAVFEPSEAEISHTQKATLVCLATGFYPDHVELSWWVNGKEVHSGVCTDPQPLKEQPALNDSRYCLSSRLRVSATFWQNPRNHFRCQVQFYGLSENDEWTQDRAKPVTQIVSAEAWGRADCGFTSESYQQGVLSATILYEILLGKATLYAVLVSALVLMAMVKRKDSRGRAKRSGSGATNFSLLKQAGDVEENPGPTSMDWIWRILFLVGAATGAHSFEVQLLESGGGLIQPGGSLRLSCAASGFTFSSHAMTWVRQAPGKGLEWVSAISGSGDYTHYADSVKGRFTISRDNSKNTVYLQMNSLRAEDSAVYYCAKDEDGGSLLGHRGQGTLVTVSSTRGSIPEDTFFPSPESSCDVKLVEKSFETDTNLNFQNLSVIGFRILLLKVAGFNLLMTLRLWSS
B3: 21993 (protein)
chain: MALPVTALLLPLALLLHAARPQLQLQESGPGLVKPSETLSLTCTVSGDSISSGDYYWGWIRQPPGKGLEWIGHIYYSGVTYYNPSLKSRVTISVDTSRNQFSLKLSSVTAADTAVYYCTREDSSNWRSRGQGTLVTVSSLEDLKNVFPPEVAVFEPSEAEISHTQKATLVCLATGFYPDHVELSWWVNGKEVHSGVCTDPQPLKEQPALNDSRYCLSSRLRVSATFWQNPRNHFRCQVQFYGLSENDEWTQDRAKPVTQIVSAEAWGRADCGFTSESYQQGVLSATILYEILLGKATLYAVLVSALVLMAMVKRKDSRGRAKRSGSGATNFSLLKQAGDVEENPGPTSMDWIWRILFLVGAATGAHSFEQLQLQESGPGLVKPSETLSLTCTVSGGSISSGDYYWGWIRQPPGKGLEWIGHIYYSGATYYNPSLKSRVTISVDTSRNQFSLKLSSVTAADTAVYYCTRDDSSNWRSRGQGTLVTVSSTRIQNPDPAVYQLRDSKSSDKSVCLFTDFDSQTNVSQSKDSDVYITDKCVLDMRSMDFKSNSAVAWSNKSDFACANAFNNSIIPEDTFFPSPESSCDVKLVEKSFETDTNLNFQNLSVIGFRILLLKVAGFNLLMTLRLWSSRAKRSGSGVKQTLNFDLLKLAGDVESNPGPSRGHMTEYKPTVRLATRDDVPRAVRTLAAAFADYPATRHTVDPDRHIERVTELQELFLTRVGLDIGKVWVADDGAAVAVWTTPESVEAGAVFAEIGPRMAELSGSRLAAQQQMEGLLAPHRPKEPAWFLATVGVSPDHQGKGLGSAVVLPGVEAAERAGVPAFLETSAPRNLPFYERLGFTVTADVEVPEGPRTWCMTRKPGA
B4: 21995 (protein)
chain: MALPVTALLLPLALLLHAARPQLQLQESGPGLVKPSETLSLTCTVSGDSISSGDYYWGWIRQPPGKGLEWIGHIYYSGVTYYNPSLKSRVTISVDTSRNQFSLKLSSVTAADTAVYYCTREDSSNWRSRGQGTLVTVSSLEDLKNVFPPEVAVFEPSEAEISHTQKATLVCLATGFYPDHVELSWWVNGKEVHSGVCTDPQPLKEQPALNDSRYCLSSRLRVSATFWQNPRNHFRCQVQFYGLSENDEWTQDRAKPVTQIVSAEAWGRADCGFTSESYQQGVLSATILYEILLGKATLYAVLVSALVLMAMVKRKDSRGRAKRSGSGATNFSLLKQAGDVEENPGPTSMDWIWRILFLVGAATGAHSFEVQLLESGGGLVQPGGSLRLSCAASGFIFSIYAMSWVRQAPGKGLEWVSGISGSGVNTYYADSVKGRFIISRDNSRNTVYLQMNSLRADDTAVYHCANGKGWDGNTWYEDYRGQGTLVTVSSTRIQNPDPAVYQLRDSKSSDKSVCLFTDFDSQTNVSQSKDSDVYITDKCVLDMRSMDFKSNSAVAWSNKSDFACANAFNNSIIPEDTFFPSPESSCDVKLVEKSFETDTNLNFQNLSVIGFRILLLKVAGFNLLMTLRLWSSRAKRSGSGVKQTLNFDLLKLAGDVESNPGPSRGHMTEYKPTVRLATRDDVPRAVRTLAAAFADYPATRHTVDPDRHIERVTELQELFLTRVGLDIGKVWVADDGAAVAVWTTPESVEAGAVFAEIGPRMAELSGSRLAAQQQMEGLLAPHRPKEPAWFLATVGVSPDHQGKGLGSAVVLPGVEAAERAGVPAFLETSAPRNLPFYERLGFTVTADVEVPEGPRTWCMTRKPGA
B5: 22001 (protein)
chain: MALPVTALLLPLALLLHAARPQLQLQESGPGLVKPSETLSLTCTVSGDSISSGDYYWGWIRQPPGKGLEWIGHIYYSGVTYYNPSLKSRVTISVDTSRNQFSLKLSSVTAADTAVYYCTREDSSNWRSRGQGTLVTVSSLEPGGGGSPEDLKNVFPPEVAVFEPSEAEISHTQKATLVCLATGFYPDHVELSWWVNGKEVHSGVCTDPQPLKEQPALNDSRYCLSSRLRVSATFWQNPRNHFRCQVQFYGLSENDEWTQDRAKPVTQIVSAEAWGRADCGFTSESYQQGVLSATILYEILLGKATLYAVLVSALVLMAMVKRKDSRGRAKRSGSGATNFSLLKQAGDVEENPGPTSMDWIWRILFLVGAATGAHSFEVQLLESGGGLIQPGGSLRLSCAASGFTFSSHAMTWVRQAPGKGLEWVSAISGSGDYTHYADSVKGRFTISRDNSKNTVYLQMNSLRAEDSAVYYCAKDEDGGSLLGHRGQGTLVTVSSTRIQNPDPAVYQLRDSKSSDKSVCLFTDFDSQTNVSQSKDSDVYITDKCVLDMRSMDFKSNSAVAWSNKSDFACANAFNNSIIPEDTFFPSPESSCDVKLVEKSFETDTNLNFQNLSVIGFRILLLKVAGFNLLMTLRLWSSRAKRSGSGVKQTLNFDLLKLAGDVESNPGPSRGHMTEYKPTVRLATRDDVPRAVRTLAAAFADYPATRHTVDPDRHIERVTELQELFLTRVGLDIGKVWVADDGAAVAVWTTPESVEAGAVFAEIGPRMAELSGSRLAAQQQMEGLLAPHRPKEPAWFLATVGVSPDHQGKGLGSAVVLPGVEAAERAGVPAFLETSAPRNLPFYERLGFTVTADVEVPEGPRTWCMTRKPGA
B6: SEQ ID NO: 22254: bispecific SAR on CD19 targeted SIR backbone comprising the receptor binding domain of the ligand APRIL (protein)
chain: MALPVTALLLPLALLLHAARPACVLHLVPINATSKDDSDVTEVMWQPALRRGRGLQAQGYGVRIQDAGVYLLYSQVLFQDVTFTMGQVVSREGQGRQETLFRCIRSMPSHPDRAYNSCYSAGVFHLHQGDILSVIIPRARAKLNLSPHGTFLGFVKLGTGGGGSGGGGSGGGGSEFDIQMTQSPSSLSASVGDRVTITCKASDHINNWLAWYQQKPGQAPKLLIYGATTLETGVPSRFSGSGSGTDYTLTISSLQPEDFATYYCQQSWNTPWTFGQGTKLEIKRLEDLKNVFPPEVAVFEPSEAEISHTQKATLVCLATGFYPDHVELSWWVNGKEVHSGVCTDPQPLKEQPALNDSRYCLSSRLRVSATFWQNPRNHFRCQVQFYGLSENDEWTQDRAKPVTQIVSAEAWGRADCGFTSESYQQGVLSATILYEILLGKATLYAVLVSALVLMAMVKRKDSRGRAKRSGSGATNFSLLKQAGDVEENPGPTSATMDWIWRILFLVGAATGAHSGPEVQLVESGGGLVQAGGSLRLSCAASGRTFSMGWFRQAPGKEREFVAAITYSGGSPYYADSVKGRFTISRDNAKNTVYLQMNSLKPEDTAVYYCAANPTYGSDWNAENWGQGTQVTVSSGSGGGGSGGGGSGGGGSFEQVQLQQPGAELVKPGASVKMSCKASGYAFSSYWINWMKQKPGQGLEWIGQIYPGDGDTNYNGKFKGRATLTADTSSSTAYMQLSSLTSEDSAVYFCARSITTVVGCAMDYWGQGTSVTVSSTRIQNPDPAVYQLRDSKSSDKSVCLFTDFDSQTNVSQSKDSDVYITDKCVLDMRSMDFKSNSAVAWSNKSDFACANAFNNSIIPEDTFFPSPESSCDVKLVEKSFETDTNLNFQNLSVIGFRILLLKVAGFNLLMTLRLWSSRAKRSGSGVKQTLNFDLLKLAGDVESNPGPSRGHMTEYKPTVRLATRDDVPRAVRTLAAAFADYPATRHTVDPDRHIERVTELQELFLTRVGLDIGKVWVADDGAAVAVWTTPESVEAGAVFAEIGPRMAELSGSRLAAQQQMEGLLAPHRPKEPAWFLATVGVSPDHQGKGLGSAVVLPGVEAAERAGVPAFLETSAPRNLPFYERLGFTVTADVEVPEGPRTWCMTRKPGA

Tested on: RAJI cells
Test: JNG assay, co-culture with RAJI cells
Assay type: cell-based
Conditions: JNG cells expressing construct, co-culture with Raji
Method: Cellular supernatant is collected and assayed for the induction of cytokines (e.g., IL2).
JNG (Jurkat cells expressing EGFP under an NFAT promoter) were infected with lentiviral vectors encoding different single chain and multi-chain SARs by spinfection in the presence of 8 µg/ml of Polybrene® (Sigma, Catalog no. H9268). The Jurkat-NFAT-GFP cells are engineered in such a way that the IL-2 promoter, which carries NFAT binding sites, is cloned upstream of the GFP gene. These cells have been used to study signaling via TCR and CAR. The different SARs were stably expressed in Jurkat NFAT-GFP cells by lentiviral mediated gene transfer, followed by selection with puromycin or blasticidin. No drug selection was used in case the construct lacked an antibiotic resistance gene. The SAR-expressing Jurkat-NFAT-GFP cells were cocultured with the target cells at E:T ratio of approximately 1:2 for approximately 4 hours to 18 hours. When the interaction between SIRs and their target antigen results in activation of the NFAT pathway, GFP expression is induced. […] GFP expression was monitored by FACS analysis. The Jurkat-NFAT-GFP (parental) cells were used as control. The structure of different constructs can be determined based on their names. […] The sequence of the other constructs in the table can be similarly determined from their names and by referring to the different Tables of this disclosure that provide the names and SEQ ID NO of the different modules. Alternatively, the composition and modular architecture of the different SAR constructs can be determined from their sequences by bioinformatics tools, including using nucleic acid and amino acids homology searches. A SAR is considered positive in the assay in case the SAR expressing Jurkat-NFAT-GFP cells show greater % GFP positive cells when cultured with the target cell line as compared to parental Jurkat-NFAT-GFP cells. […] In general, the number +/-, +, 2+, 3+, 4+, 5+ refer to approximately 5%, 10%, 20%, 30%, 40% and 50% GFP positive cells. The % of GFP induction in the above assay is dependent not only the relative strength of the SAR but also, among other factors, on the relative level of expression of the SAR in the JNG cells and the relative level of expression of the target antigen in the target cell line. To control for the difference in gene transduction efficiency of the different SAR constructs, the experiment was conducted with JNG cells transduced with SAR constructs co-expressing a drug resistance gene (e.g., puromycin or PAC) followed by drug selection to generate a stable population of SAR-expressing cells. It is to be noted that the drug resistance gene (e.g., PAC) in the SAR constructs is optional and in vivo studies were conducted with SAR constructs lacking the PAC gene.

Question: B1 was tested. Which “NFAT-GFP ASSAY: Raji” value did it give?
Answer: +/- (refer to approximately 5%, 10%, 20%, 30%, 40% and 50% GFP positive cells)

Question: B2 was tested. Which “NFAT-GFP ASSAY: Raji” value did it give?
Answer: +/- (refer to approximately 5%, 10%, 20%, 30%, 40% and 50% GFP positive cells)

Question: Which “NFAT-GFP ASSAY: Raji” value does the source give for B3 here?
Answer: Raji (+/-) (refer to approximately 5%, 10%, 20%, 30%, 40% and 50% GFP positive cells)

Question: How did the “NFAT-GFP ASSAY: Raji” value turn out when B4 was run?
Answer: + (refer to approximately 5%, 10%, 20%, 30%, 40% and 50% GFP positive cells)

Question: For B5, which “NFAT-GFP ASSAY: Raji” value is on record?
Answer: +/- (refer to approximately 5%, 10%, 20%, 30%, 40% and 50% GFP positive cells)

Same assay, conditions: co-culture with RAJI cells

Question: Which “GFP induction / activity” value does the source give for B6 here?
Answer: retained the ability to respond
